The source of these data is publication PMC10397247.

Experiment [1] concerns the target T1, 4H1446-AA.
T1 chain: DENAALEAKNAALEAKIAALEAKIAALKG
Nature of the experiment: two-hybrid library CCmax.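 Also: natural log of median RNA to DNA barcode read ratio; higher means stronger binding.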

Experiment [2] addresses T2, 4H1845-AA.
T2 chain: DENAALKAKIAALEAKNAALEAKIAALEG
Nature of the experiment: two-hybrid library CCmax.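 Also: natural log of median RNA to DNA barcode read ratio; higher means stronger binding.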 As to conditions: mean of both orientations.

Experiment [3] has as its target T3, 4H2442-AA.
T3 chain: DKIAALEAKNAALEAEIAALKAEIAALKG
Nature of the experiment: two-hybrid library CCmax.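 Also: natural log of median RNA to DNA barcode read ratio; higher means stronger binding.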 The conditions noted are these: mean of both orientations.

Experiment [4] concerns the target T4, 4H3112-AA.
T4 chain: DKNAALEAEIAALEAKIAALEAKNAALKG
Nature of the experiment: two-hybrid library CCmax.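 Also: natural log of median RNA to DNA barcode read ratio; higher means stronger binding.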 The conditions noted are these: mean of both orientations.

Experiment [5] has as its target T5, 4H3354-AA.
T5 chain: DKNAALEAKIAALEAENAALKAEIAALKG
Nature of the experiment: two-hybrid library CCmax.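 Also: natural log of median RNA to DNA barcode read ratio; higher means stronger binding.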 The conditions noted are these: mean of both orientations.

For experiment [6], the target named is T6, 4H3427-AA.
T6 chain: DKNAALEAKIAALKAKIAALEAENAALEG
Nature of the experiment: two-hybrid library CCmax.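 Also: natural log of median RNA to DNA barcode read ratio; higher means stronger binding.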 The conditions noted are these: mean of both orientations.

Experiment [7] concerns the target T7, 4H3782-AA.
T7 chain: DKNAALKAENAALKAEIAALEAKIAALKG
Nature of the experiment: two-hybrid library CCmax. The conditions noted are these: mean of both orientations.

The target in experiment [8] is T8, 4H3855-AA.
T8 chain: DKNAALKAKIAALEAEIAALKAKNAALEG
Nature of the experiment: two-hybrid library CCmax. The conditions noted are these: mean of both orientations.

For experiment [9], the target named is T9, 4H4001-AA.
T9 chain: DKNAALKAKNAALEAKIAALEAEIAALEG
Nature of the experiment: two-hybrid library CCmax. The conditions noted are these: mean of both orientations.

Experiment [10] addresses T10, 4H568-AA.
T10 chain: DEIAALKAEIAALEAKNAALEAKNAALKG
Nature of the experiment: two-hybrid library CCmax. The conditions noted are these: mean of both orientations.

Experiment [11] has as its target T11, 4H687-AA.
T11 chain: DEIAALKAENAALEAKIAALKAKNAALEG
Nature of the experiment: two-hybrid library CCmax. As to conditions: mean of both orientations.

Experiment [12] has as its target T12, 4H717-AA.
T12 chain: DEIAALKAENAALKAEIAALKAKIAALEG
Nature of the experiment: two-hybrid library CCmax. The conditions noted are these: mean of both orientations.

Experiment [13] has as its target T13, 4H797-AA.
T13 chain: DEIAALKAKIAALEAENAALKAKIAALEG
Nature of the experiment: two-hybrid library CCmax. The conditions noted are these: mean of both orientations.

In experiment [14] the target is T14, 4H883-AA.
T14 chain: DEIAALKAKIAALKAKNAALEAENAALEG
Nature of the experiment: two-hybrid library CCmax. The conditions noted are these: mean of both orientations.

Experiment [15] deals with T15, 4H918-AA.
T15 chain: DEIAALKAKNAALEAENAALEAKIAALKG
Nature of the experiment: two-hybrid library CCmax. As to conditions: mean of both orientations.

For experiment [16], the target named is T16, 4H953-AA.
T16 chain: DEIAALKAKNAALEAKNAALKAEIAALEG
Nature of the experiment: two-hybrid library CCmax. As to conditions: mean of both orientations.

Experiment [17] concerns the target T17, 4H967-AA.
T17 chain: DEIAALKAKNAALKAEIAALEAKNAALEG
Nature of the experiment: two-hybrid library CCmax. As to conditions: mean of both orientations.

Experiment [18] has as its target T18, 4H1193-bA.
T18 chain: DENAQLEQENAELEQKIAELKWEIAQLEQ
Nature of the experiment: two-hybrid library CCNG1.

Experiment [19] deals with T19, 4H1328-bA.
T19 chain: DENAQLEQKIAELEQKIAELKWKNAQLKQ
Nature of the experiment: two-hybrid library CCNG1.

For experiment [20], the target named is T20, 4H1369-bA.
T20 chain: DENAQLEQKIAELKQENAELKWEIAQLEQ
Nature of the experiment: two-hybrid library CCNG1.

Experiment [21] addresses T21, 4H1387-bA.
T21 chain: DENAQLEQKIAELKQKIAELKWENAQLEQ
Nature of the experiment: two-hybrid library CCNG1.

Experiment [22] has as its target T22, 4H1406-bA.
T22 chain: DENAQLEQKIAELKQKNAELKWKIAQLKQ
Nature of the experiment: two-hybrid library CCNG1.

The target in experiment [23] is T23, 4H1446-bA.
T23 chain: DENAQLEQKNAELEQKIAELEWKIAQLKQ
Nature of the experiment: two-hybrid library CCNG1.

For experiment [24], the target named is T24, 4H1845-bA.
T24 chain: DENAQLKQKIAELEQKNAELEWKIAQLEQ
Nature of the experiment: two-hybrid library CCNG1.

The target in experiment [25] is T25, 4H2576-bA.
T25 chain: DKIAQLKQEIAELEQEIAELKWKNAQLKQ
Nature of the experiment: two-hybrid library CCNG1.

The target in experiment [26] is T26, 4H2610-bA.
T26 chain: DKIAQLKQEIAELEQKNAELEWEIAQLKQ
Nature of the experiment: two-hybrid library CCNG1.

The target in experiment [27] is T27, 4H2667-bA.
T27 chain: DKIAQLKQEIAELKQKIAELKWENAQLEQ
Nature of the experiment: two-hybrid library CCNG1.

For experiment [28], the target named is T28, 4H2697-bA.
T28 chain: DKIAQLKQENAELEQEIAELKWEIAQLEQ
Nature of the experiment: two-hybrid library CCNG1.

For experiment [29], the target named is T29, 4H3189-bA.
T29 chain: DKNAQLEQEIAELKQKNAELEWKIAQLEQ
Nature of the experiment: two-hybrid library CCNG1.

Experiment [30] concerns the target T30, 4H331-bA.
T30 chain: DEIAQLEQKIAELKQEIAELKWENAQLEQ
Nature of the experiment: two-hybrid library CCNG1.

Experiment [31] deals with T31, 4H3592-bA.
T31 chain: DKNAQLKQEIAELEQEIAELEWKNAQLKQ
Nature of the experiment: two-hybrid library CCNG1.

In experiment [32] the target is T32, 4H3601-bA.
T32 chain: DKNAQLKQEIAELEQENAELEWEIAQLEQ
Nature of the experiment: two-hybrid library CCNG1.

For experiment [33], the target named is T33, 4H3606-bA.
T33 chain: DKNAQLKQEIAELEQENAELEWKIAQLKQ
Nature of the experiment: two-hybrid library CCNG1.

Experiment [34] addresses T34, 4H370-bA.
T34 chain: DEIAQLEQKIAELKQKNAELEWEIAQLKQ
Nature of the experiment: two-hybrid library CCNG1.

Experiment [35] addresses T35, 4H3782-bA.
T35 chain: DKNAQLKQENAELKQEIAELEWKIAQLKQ
Nature of the experiment: two-hybrid library CCNG1.

The target of experiment [36] is T36, 4H3843-bA.
T36 chain: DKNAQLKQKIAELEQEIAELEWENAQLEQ
Nature of the experiment: two-hybrid library CCNG1.

Experiment [37] has as its target T37, 4H3907-bA.
T37 chain: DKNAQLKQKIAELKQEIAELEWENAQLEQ
Nature of the experiment: two-hybrid library CCNG1.

Experiment [38] has as its target T38, 4H4001-bA.
T38 chain: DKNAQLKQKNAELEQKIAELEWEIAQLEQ
Nature of the experiment: two-hybrid library CCNG1.

Experiment [39] concerns the target T39, 4H4038-bA.
T39 chain: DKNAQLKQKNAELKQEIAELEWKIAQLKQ
Nature of the experiment: two-hybrid library CCNG1.

For experiment [40], the target named is T40, 4H454-bH.
T40 chain: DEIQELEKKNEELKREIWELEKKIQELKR
Nature of the experiment: two-hybrid library CCNG1.

Experiment [41] has as its target T41, 4H462-bA.
T41 chain: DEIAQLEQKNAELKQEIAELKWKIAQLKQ
Nature of the experiment: two-hybrid library CCNG1.

Experiment [42] concerns the target T42, 4H568-bA.
T42 chain: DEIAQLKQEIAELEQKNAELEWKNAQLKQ
Nature of the experiment: two-hybrid library CCNG1.

The target of experiment [43] is T43, 4H607-bA.
T43 chain: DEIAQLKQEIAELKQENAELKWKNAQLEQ
Nature of the experiment: two-hybrid library CCNG1.

The target in experiment [44] is T44, 4H687-bA.
T44 chain: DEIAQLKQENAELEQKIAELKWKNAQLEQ
Nature of the experiment: two-hybrid library CCNG1.

Experiment [45] addresses T45, 4H72-bA.
T45 chain: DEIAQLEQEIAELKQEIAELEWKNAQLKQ
Nature of the experiment: two-hybrid library CCNG1.

Experiment [46] has as its target T46, 4H797-bA.
T46 chain: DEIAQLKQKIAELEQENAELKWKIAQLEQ
Nature of the experiment: two-hybrid library CCNG1.

The target in experiment [47] is T47, 4H883-bA.
T47 chain: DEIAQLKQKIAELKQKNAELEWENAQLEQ
Nature of the experiment: two-hybrid library CCNG1.

For experiment [48], the target named is T48, 4H918-bA.
T48 chain: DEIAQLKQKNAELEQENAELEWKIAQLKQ
Nature of the experiment: two-hybrid library CCNG1.

Experiment [49] deals with T49, 4H953-bA.
T49 chain: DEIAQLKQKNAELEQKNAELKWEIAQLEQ
Nature of the experiment: two-hybrid library CCNG1.

The target of experiment [50] is T50, 4H967-bA.
T50 chain: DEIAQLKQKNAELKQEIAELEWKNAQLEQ
Nature of the experiment: two-hybrid library CCNG1.

The target of experiment [51] is T51, 4H968-bN.
T51 chain: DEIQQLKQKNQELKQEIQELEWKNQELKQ
Nature of the experiment: two-hybrid library CCNG1.

Experiment [52] addresses T52, P9A.
T52 chain: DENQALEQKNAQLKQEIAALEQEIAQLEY
Nature of the experiment: two-hybrid library CCNG1.

Experiment [53] has as its target T53, 4H1072-bA.
T53 chain: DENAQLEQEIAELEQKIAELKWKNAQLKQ
Nature of the experiment: two-hybrid library CCNG1.

Experiment [54] deals with T54, 4H2568-bA.
T54 chain: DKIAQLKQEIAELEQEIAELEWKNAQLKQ
Nature of the experiment: two-hybrid library CCNG1.

Experiment [55] deals with T55, 4H2619-bA.
T55 chain: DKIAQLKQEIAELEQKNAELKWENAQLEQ
Nature of the experiment: two-hybrid library CCNG1.

For experiment [56], the target named is T56, 4H2745-bA.
T56 chain: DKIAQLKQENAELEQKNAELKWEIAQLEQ
Nature of the experiment: two-hybrid library CCNG1.

Experiment [57] has as its target T57, 4H344-bA.
T57 chain: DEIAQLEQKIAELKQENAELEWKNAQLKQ
Nature of the experiment: two-hybrid library CCNG1.

The target in experiment [58] is T58, 4H363-bA.
T58 chain: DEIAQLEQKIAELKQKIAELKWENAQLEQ
Nature of the experiment: two-hybrid library CCNG1.

Experiment [59] addresses T59, 4H3961-bA.
T59 chain: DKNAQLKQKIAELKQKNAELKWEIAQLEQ
Nature of the experiment: two-hybrid library CCNG1.

Experiment [60] addresses T60, 4H470-bA.
T60 chain: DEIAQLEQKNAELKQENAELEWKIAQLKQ
Nature of the experiment: two-hybrid library CCNG1.

In the case of DENAALEAKNAALEAKIAALEAKIAALKG [4H1446-AA], the interaction score in experiment [1] is 0.267; in experiment [2], -1.25; in [3], -1.19; in experiment [4], -0.365; in [5], -1.43; in experiment [6], -0.719. Moreover, the interaction score in experiment [7] is 0.114; in experiment [8] it was -0.445; in experiment [9], 2.23; in [10] it was -1.7; in [11] it was -1.79; in experiment [12], -1.15. The interaction score was -1.49 in [13]; -1.54 in experiment [14]; -1.53 in [15]; -0.751 in experiment [16]; -1.1 in experiment [17].
Consider DENAQLEQENAELEQKIAELKWEIAQLEQ [4H1193-bA], for which the interaction score in [18] was -1.02; in experiment [19] it was -0.132; in [20], -1.1; in experiment [21] it was -0.852; in [22], -0.0377; in [23], -0.515. Also, the interaction score in experiment [24] is -0.841; in [25], 1.08; in experiment [26] it was -0.547; in [27] it was -0.522; in experiment [28] it was -0.731; in experiment [29], -0.992. The interaction score is -1.28 in experiment [30]; -0.214 in experiment [31]; -0.992 in experiment [32]; -0.984 in experiment [33]; -1.27 in experiment [34]; 1.7 in experiment [35]. In addition, the interaction score in experiment [36] was 0.453; in experiment [37] it was -0.444; in [38] it was 0.926; in experiment [39], 2.35; in experiment [40], 0.453; in experiment [41], 0.96. The interaction score is -1.33 in experiment [42]; -0.928 in experiment [43]; -0.956 in [44]; -1.83 in experiment [45]; -1.03 in experiment [46]; -0.805 in experiment [47]. In addition, the interaction score in [48] is -1.33; in experiment [49], -1.01; in experiment [50], -0.577; in experiment [51], 1.16; in [52], 0.624.
DENAQLEQEIAELEQKIAELKWKNAQLKQ [4H1072-bA]: the interaction score in [53] is 0.969; in [18], 0.766; in [21], 1.46; in experiment [22] it was 0.239; in experiment [54], 1.85; in [55] it was 0.0458. In addition, the interaction score in experiment [56] is -0.205; in [57], -0.759; in experiment [31] it was 1.81; in experiment [32], 0.34; in experiment [58] it was 1.21; in experiment [37] it was 0.997. Besides, the interaction score in experiment [59] is 1.34; in [39] it was 1.71; in experiment [60] it was -1.2.
